# Measured values published in patent US20170260575A1.
# [ ]: non-standard residue; d: D form.
# Target: integrin receptors on NIH/3T3 fibroblast cells
# Assay: cell-based or functional assay
binder,measurement,value
"cyclo(RGD[dF]K) (also: biotin-labelled (cRGDfK-biotin), bound via streptavidin) [cyclic Arg-Gly-Asp-d-Phe-Lys (cRGDfK) peptide]","decrease in Cy3B fluorescence under individual cells, Ttol=12 pN duplexes",13.7%
same,"decrease in Cy3B fluorescence under individual cells, Ttol=56 pN duplex",6.5%
same,"fold decrease in MCR signal of controls (duplexes lacking cRGDfK, scrambled duplexes) against the 12 pN cRGDfK surface",150 fold
